Earlier results on one substance are cited in publication PMC9594772.

The data set has as its target Dll4 ECD (Rattus norvegicus) (UniProt D3ZHH1).

Chain of Dll4 ECD (Rattus norvegicus) (D3ZHH1 28-530): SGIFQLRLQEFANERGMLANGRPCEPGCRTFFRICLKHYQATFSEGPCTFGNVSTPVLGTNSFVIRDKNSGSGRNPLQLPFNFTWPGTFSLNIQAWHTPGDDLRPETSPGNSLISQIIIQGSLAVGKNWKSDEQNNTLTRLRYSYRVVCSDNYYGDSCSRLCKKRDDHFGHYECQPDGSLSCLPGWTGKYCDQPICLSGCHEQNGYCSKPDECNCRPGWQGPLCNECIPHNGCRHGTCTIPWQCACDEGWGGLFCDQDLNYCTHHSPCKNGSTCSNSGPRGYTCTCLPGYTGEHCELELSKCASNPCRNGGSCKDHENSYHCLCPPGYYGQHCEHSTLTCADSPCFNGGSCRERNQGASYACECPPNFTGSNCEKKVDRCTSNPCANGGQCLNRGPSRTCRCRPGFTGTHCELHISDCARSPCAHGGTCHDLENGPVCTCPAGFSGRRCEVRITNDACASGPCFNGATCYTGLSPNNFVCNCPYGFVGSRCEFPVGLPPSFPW

A word on the Kd: it is the free concentration of one partner at which half of the binding sites on the other are occupied at equilibrium, for simple one-to-one binding. Turning to Notch1 (from UniProt P46531), the Kd is 12.7 µM.
